Test results published in patent publication US5180678A, “Uses of substantially pure interleukin-9 receptor” (Ludwig Institute for Cancer Research, priority 1992, dated 1993).

Tests used:
IL-9R [1] = target: T1, IL-9R (Mus musculus, UniProt Q01114); experiment: Competitive binding of radiolabelled rIL-9 to TS1 cells (specificity of IL-9 binding); set-up: a number of different cell types were tested for the presence of the IL-9R molecule; endogenous in cells; details: competitor 6.1 × 10^-10 M; labelled rIL-9 6.1×10^-10 M, 10^6 TS1 cells, 3 h 4° C.; no competitor 4083 ± 16
T1 sequence (Q01114 38-468): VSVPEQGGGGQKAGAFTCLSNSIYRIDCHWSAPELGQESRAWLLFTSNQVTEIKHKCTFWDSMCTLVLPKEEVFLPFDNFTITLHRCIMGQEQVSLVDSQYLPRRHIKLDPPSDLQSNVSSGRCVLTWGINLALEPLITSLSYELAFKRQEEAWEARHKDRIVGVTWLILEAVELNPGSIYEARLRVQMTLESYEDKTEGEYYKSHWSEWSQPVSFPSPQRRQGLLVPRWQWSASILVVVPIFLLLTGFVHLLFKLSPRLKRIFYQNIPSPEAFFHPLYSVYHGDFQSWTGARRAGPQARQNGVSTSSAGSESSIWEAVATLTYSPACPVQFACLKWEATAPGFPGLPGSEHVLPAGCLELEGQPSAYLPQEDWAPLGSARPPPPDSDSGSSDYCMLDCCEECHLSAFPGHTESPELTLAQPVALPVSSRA
Experimental: In order to test whether the radioactive IL-9 would bind to TS1 cells which are mouse cells, which are IL-9 dependent, a competitive assay was carried out. Specifically, rIL-9 was incubated with TS1 cells in 140 ul of DMEM containing BSA (10 mg/ml) and Na3 N (10 mM). In order to determine the level of binding, a 100 fold excess of "cold", i.e., non-radiolabelledIL-9, was also mixed with the material. The rIL-9 was admixed at 6.1×10^-10 M, for three hours at 4° C., with 10^6 TS1 cells. Bound material was separated from free ligand via centrifugation over a layer of dibutyl and dioctyl phthalate (15:I). In addition, the experiments were repeated using various interleukins, interferon-γ ("INF-γ"), tumor necrosis factor ("TNF"), and granulocyte, macrophage colony stimulating factor ("GM-CSF"). All experiments were carried out in triplicate.

IL-9R [2] = target: T1, IL-9R; experiment: Cellular distribution of IL-9R: specific binding of 125I-labeled IL-9 to cell types; set-up: a number of different cell types were tested for the presence of the IL-9R molecule; endogenous in cells
Experimental: The molecular nature of the IL-9R was studied via affinity cross linking experiments. In these, 5×10^6 cells (TS1)/ml were incubated for three hours at 4° C. in 140 ul of binding medium, either with 1.3×10^-10 M of labeled rIL-9, or the labeled cytokine mixed with 3.1×10^-8 M of the unlabeled material. After two washes with 1 ml of cold, phosphate buffered saline (PBS) at pH 7.4, cells were resuspended in 2.25 ml of cold PBS (pH 8.4), containing 1 mM MgCl2. Disuccinimidyl suberate, solubilized in dimethylsulfoxide, was added at a final concentration of 10 ug/ml. This cross links the cytokine to the cell. […] After a 30 minute incubation on ice, the reaction was quenched by adding 2.5 ml of cold 10 mM TRIS-HCl (pH 7.4) and 1 mM EDTA. The cells were centrifuged and the resulting pellet was resuspended in 50 ul of cold lysis buffer (Tris-HCl 126 mM, pH 7.5 containing 0.7% Triton-X100, 2 mM phenylmethylsulfonyl fluoride (PMSF)), 10 mM EDTA, 10 mM 2-mercaptoethanol, and, in some cases 0.2 mM pepstatin, 2 mM O-phenanthrolin and 0.1 mM leupeptin were included. […] Following extraction, the detergent mixture was incubated for 30 minutes on ice, with insoluble material being removed by centrifuging for 15 minutes at 10,000 rpm. Supernatant was boiled for 90 seconds in the presence of 3 mg/ml of SDS, and was diluted twice with lysis buffer.
Following the protocols of Example 5, a number of different cell types were tested for the presence of the IL-9R molecule.
±Cells were incubated with ^125 Ilabeled IL9.

TS1 cells = experiment: Internalization of bound labelled rIL-9 (resistance to acid induced dissociation); format: cell-based, mouse; details: TS1 cells saturated at 4° C. with 3.3×10^-10 M labelled rIL-9, then 37° C.; after about one hour; acid pH 3.0 (FIG. 5)
Experimental: It is known that when cytokines are mixed with their receptors at 37° C., they bind thereto when incubated and this is generally followed by internalization of the cytokine. This is determined via testing for increased resistance to acid induced dissociation of bound radiolabel.
To test this for the labeled rIL-9, 7×10^6 TS1 cell/ml were incubated at 4° C. in binding medium as described supra, but lacking Na3 N, with either 3.3×10^-10 M labelled rIL-9, or this concentration of the labelled cytokine plus a 100 fold excess of unlabeled rIL-9. This saturates the cells. After three hours of incubation, the cells were washed with cold binding medium to remove unbound ligand, and the cells were transferred to medium lacking rIL-9, at a temperature of 37° C. At various time intervals, the cells were incubated for two minutes with either of 360 ul of binding medium, or with citrate buffer (50 mM, pH 2.5). Contact with citrate buffer, in effect, exposed the cells to a pH of 3.0.

IL-9: lymphokine interleukin-9, T-cell derived growth factor; in Tables II and III the 125I-labelled recombinant form is used
Bound Radioactivity (IL-9R [1]): 1181 ± 123 cpm | Specific Binding (IL-9R [2]; B lymphocytes LPS-blasts, 125I-labeled IL-9 3.2 × 10^-10 M): -- (below detection limit (<10 mol/cell)) | Specific Binding (IL-9R [2]; B lymphocytes unstimulated, 125I-labeled IL-9 3.2 × 10^-10 M): -- (below detection limit (<10 mol/cell)) | Specific Binding (IL-9R [2]; B-cell hybridoma 7TD1, 125I-labeled IL-9 3.2 × 10^-10 M): -- (below detection limit (<10 mol/cell)) | Specific Binding (IL-9R [2]; CTL clone CTL P1:5, 125I-labeled IL-9 1.6 × 10^-10 M): -- (below detection limit (<10 mol/cell)) | Specific Binding (IL-9R [2]; CTL clone CTL P1:204, 125I-labeled IL-9 6.2 × 10^-11 M): -- (below detection limit (<10 mol/cell)) | Specific Binding (IL-9R [2]; CTL clone CTL P35:10, 125I-labeled IL-9 3.3 × 10^-10 M): -- (below detection limit (<10 mol/cell)) | Specific Binding (IL-9R [2]; CTL clone CTL P35:48, 125I-labeled IL-9 1.3 × 10^-10 M): -- (below detection limit (<10 mol/cell)) | Specific Binding (IL-9R [2]; CTL clone CTL P91:6, 125I-labeled IL-9 1.3 × 10^-10 M): -- (below detection limit (<10 mol/cell)) | Specific Binding (IL-9R [2]; Carcinoa 3LL (Lewis Lung), 125I-labeled IL-9 6.2 × 10^-11 M): -- (below detection limit (<10 mol/cell)) | Specific Binding (IL-9R [2]; Factor-dependent T cells ST2K9.4A2, 125I-labeled IL-9 4.1 × 10^-10 M): 1415 mol/cell | Specific Binding (IL-9R [2]; Factor-dependent T cells TS1, 125I-labeled IL-9 5.6 × 10^-10 M): 2235 mol/cell | Specific Binding (IL-9R [2]; Factor-dependent T cells TUC.51S1, 125I-labeled IL-9 1.3 × 10^-10 M): 663 mol/cell | Specific Binding (IL-9R [2]; Fibroblasts A-9, 125I-labeled IL-9 6.2 × 10^-11 M): -- (below detection limit (<10 mol/cell)) | Specific Binding (IL-9R [2]; Fibrosarcoma MethA, 125I-labeled IL-9 6.2 × 10^-11 M): -- (below detection limit (<10 mol/cell)) | Specific Binding (IL-9R [2]; KLH-primed lymph nodes (C57B/6 mice), 125I-labeled IL-9 6.2 × 10^-10 M): -- (below detection limit (<10 mol/cell)) | Specific Binding (IL-9R [2]; Lymphoma LBRM-33-1A5, 125I-labeled IL-9 5.6 × 10^-10 M): 599 mol/cell | Specific Binding (IL-9R [2]; Macrophages Bone marrow derived, 125I-labeled IL-9 4.1 × 10^-10 M): 195 mol/cell | Specific Binding (IL-9R [2]; Macrophages P399D1, 125I-labeled IL-9 6.2 × 10^-11 M): 16 mol/cell | Specific Binding (IL-9R [2]; Macrophages PU5-1,8, 125I-labeled IL-9 1.3 × 10^-10 M): 229 mol/cell | Specific Binding (IL-9R [2]; Mast cell line L138.C, 125I-labeled IL-9 4.1 × 10^-10 M): 331 mol/cell | Specific Binding (IL-9R [2]; Mast cell line L138.8A, 125I-labeled IL-9 4.1 × 10^-10 M): 2208 mol/cell | Specific Binding (IL-9R [2]; Myeloid Cell Line DA-1, 125I-labeled IL-9 3.2 × 10^-10 M): 18 mol/cell | Specific Binding (IL-9R [2]; Myeloid Cell Line Ea3,15, 125I-labeled IL-9 5.6 × 10^-10 M): -- (below detection limit (<10 mol/cell)) | Specific Binding (IL-9R [2]; Myeloid Cell Line FDC-P1, 125I-labeled IL-9 5.6 × 10^-10 M): -- (below detection limit (<10 mol/cell)) | Specific Binding (IL-9R [2]; Myelomonocytic leukemia WEHI.3B, 125I-labeled IL-9 7.5 × 10^-10 M): -- (below detection limit (<10 mol/cell)) | Specific Binding (IL-9R [2]; Normal lymph nodes, 125I-labeled IL-9 6.2 × 10^-10 M): -- (below detection limit (<10 mol/cell)) | Specific Binding (IL-9R [2]; Plasmacytoma TEPC1033C, 125I-labeled IL-9 3.2 × 10^-10 M): -- (below detection limit (<10 mol/cell)) | Specific Binding (IL-9R [2]; Spleen Cells, 125I-labeled IL-9 3.2 × 10^-10 M): -- (below detection limit (<10 mol/cell)) | Specific Binding (IL-9R [2]; T lymphocytes ConA-blasts, 125I-labeled IL-9 3.2 × 10^-10 M): -- (below detection limit (<10 mol/cell)) | Specific Binding (IL-9R [2]; T lymphocytes unstimulated, 125I-labeled IL-9 3.2 × 10^-10 M): -- (below detection limit (<10 mol/cell)) | Specific Binding (IL-9R [2]; T-cell leukemia L1210, 125I-labeled IL-9 5.6 × 10^-10 M): -- (below detection limit (<10 mol/cell)) | Specific Binding (IL-9R [2]; T-cell leukemia LEB, 125I-labeled IL-9 6.2 × 10^-11 M): -- (below detection limit (<10 mol/cell)) | Specific Binding (IL-9R [2]; T-cell leukemia TH1, 125I-labeled IL-9 5.6 × 10^-10 M): 273 mol/cell | Specific Binding (IL-9R [2]; Thymocytes, 125I-labeled IL-9 3.2 × 10^-10 M): -- (below detection limit (<10 mol/cell)) | Specific Binding (IL-9R [2]; Thymoma BW5147, 125I-labeled IL-9 6.2 × 10^-10 M): 120 mol/cell | Specific Binding (IL-9R [2]; Thymoma EL4.16, 125I-labeled IL-9 7.5 × 10^-10 M): 263 mol/cell | internalization of IL-9 (TS1 cells): most of the IL-9 was internalized
